1 molecule from article PMC6182170, “A protein–protein interaction underlies the molecular basis for substrate recognition by an adenosine-to-inosine RNA-editing enzyme” can be followed below.

In this data set the target is T1, ADR-1 dsRBD2 mutant (ds2) (Caenorhabditis elegans, UniProt Q9U3D6 1-964, K584E;K585A;K588A).
T1 sequence: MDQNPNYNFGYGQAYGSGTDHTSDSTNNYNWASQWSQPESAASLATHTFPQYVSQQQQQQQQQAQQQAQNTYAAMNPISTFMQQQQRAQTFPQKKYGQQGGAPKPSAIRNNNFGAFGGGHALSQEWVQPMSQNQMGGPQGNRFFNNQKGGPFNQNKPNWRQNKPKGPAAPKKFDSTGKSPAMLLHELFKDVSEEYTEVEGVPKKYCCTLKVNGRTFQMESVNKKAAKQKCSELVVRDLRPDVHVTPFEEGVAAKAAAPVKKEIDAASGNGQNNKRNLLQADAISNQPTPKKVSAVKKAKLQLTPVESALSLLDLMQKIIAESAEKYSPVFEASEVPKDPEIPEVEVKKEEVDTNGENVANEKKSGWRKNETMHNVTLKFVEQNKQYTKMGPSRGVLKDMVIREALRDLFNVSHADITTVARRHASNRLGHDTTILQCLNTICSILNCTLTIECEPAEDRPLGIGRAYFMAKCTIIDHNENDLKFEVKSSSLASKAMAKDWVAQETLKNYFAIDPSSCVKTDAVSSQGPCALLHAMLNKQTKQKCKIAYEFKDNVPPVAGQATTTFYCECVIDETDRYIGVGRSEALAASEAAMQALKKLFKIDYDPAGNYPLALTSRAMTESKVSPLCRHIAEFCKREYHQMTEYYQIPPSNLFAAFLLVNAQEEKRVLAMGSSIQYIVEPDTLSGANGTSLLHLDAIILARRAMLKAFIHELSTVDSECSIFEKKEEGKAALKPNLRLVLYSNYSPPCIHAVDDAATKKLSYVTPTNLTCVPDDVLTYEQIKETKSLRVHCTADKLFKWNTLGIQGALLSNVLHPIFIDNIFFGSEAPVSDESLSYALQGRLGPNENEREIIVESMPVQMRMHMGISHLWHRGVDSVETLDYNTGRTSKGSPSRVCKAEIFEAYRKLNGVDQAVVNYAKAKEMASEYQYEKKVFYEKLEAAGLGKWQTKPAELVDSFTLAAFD
Description: EMSA; apparent Kd; text calls binding similar to WT; EMSA: 20 pM dsRNA, 50 mM KCl, 10 mM Tris-HCl pH 8.0, 10% glycerol, 1 mM MgCl2, 0.5 mM DTT, on ice 30 min; native 6% gel, 0.5x TBE, 4 C. Conditions: protein: recombinant; tags: N-terminal 6xHis (TEV site); label: 5' 32P on ssRNAs (PNK); imperfect duplex; printed strands 45 and 46 nt. (A gel shift assay detects complexes by their altered migration in electrophoresis.)

B1: lam-2 3'UTR 46 bp dsRNA (dsRNA)
RNA 1: AGACACACAUACAAAAUUUACAAAAAUUGUUAAUUGACAAAAUAC
RNA 2: GUGUUUUGCCAAUUAACGAUUUUUUGUAAAUUUUAUAUGUGUCUCU
Take B1: the Kd amounted to 4.67 ± 0.7 nM.
